First the molecules themselves.
B1: peptide HD2 (from tick evasin EVA4) / CCL4 (biotinylated, synthetic) (parent complex)
chain 1: EEDDYTAYAPLTCYFT
chain 2: APMGSDPPTACCFSYTARKLPRNFVVDYYETSSLCSQPAVVFQTKRSKQVCADPSESWVQEYVYDLELN

Consider 112 variants from PMC11969024 (2025).

The variants in the assay derive from B1.
For the variant chain 1 EEDDYTAYAPLTCYFV [chain 1 T16V], the enrichment is -0.281 log2 (difference from the parental peptide).
Under chain 1 EEDDYTAYAPLTCYFG [chain 1 T16G] stands 1.59 log2 (difference from the parental peptide); under chain 1 EEDDYTAYAPLTCYFI [chain 1 T16I], -0.308 log2 (difference from the parental peptide).
To chain 1 EEDDYTAYAPLTCYFQ [chain 1 T16Q] belongs 1.49 log2 (difference from the parental peptide); to chain 1 EEDDYTAYAPLTCYFS [chain 1 T16S], 1.17 log2 (difference from the parental peptide).
As for chain 1 EEDDYTAYAPLTCYFN [chain 1 T16N], the enrichment was 0.632 log2 (difference from the parental peptide).
To chain 1 EEDDYTAYAPLTCYFK [chain 1 T16K] belongs 0.843 log2 (difference from the parental peptide); to chain 1 EEDDYTAYAPLTCYFY [chain 1 T16Y], -1.43 log2 (difference from the parental peptide); to chain 1 EEDDYTYYAPLTCYFT [chain 1 A7Y], -1.83 log2 (difference from the parental peptide).
To chain 1 EEDDYTEYAPLTCYFT [chain 1 A7E] belongs 2.68 log2 (difference from the parental peptide); to chain 1 EEDDYTHYAPLTCYFT [chain 1 A7H], -0.536 log2 (difference from the parental peptide).
To chain 1 EEDDYTRYAPLTCYFT [chain 1 A7R] belongs 0.829 log2 (difference from the parental peptide); to chain 1 EEDDYTCYAPLTCYFT [chain 1 A7C], -7.41 log2 (difference from the parental peptide).
For the variant chain 1 EEDDYTNYAPLTCYFT [chain 1 A7N], the enrichment is 0.608 log2 (difference from the parental peptide).
For the variant chain 1 EEDDYTSYAPLTCYFT [chain 1 A7S], the enrichment is 1.01 log2 (difference from the parental peptide).
For the variant chain 1 EEDDYTAYVPLTCYFT [chain 1 A9V], the enrichment is -8.22 log2 (difference from the parental peptide).
Turning to chain 1 EEDDYTAYMPLTCYFT [chain 1 A9M], the enrichment is -3.9 log2 (difference from the parental peptide).
With chain 1 EEMDYTAYAPLTCYFT [chain 1 D3M], the enrichment was -2.83 log2 (difference from the parental peptide).
Turning to chain 1 EEFDYTAYAPLTCYFT [chain 1 D3F], the enrichment is -2.01 log2 (difference from the parental peptide).
Turning to chain 1 EEVDYTAYAPLTCYFT [chain 1 D3V], the enrichment is -3.36 log2 (difference from the parental peptide).
To chain 1 EEQDYTAYAPLTCYFT [chain 1 D3Q] belongs -3.56 log2 (difference from the parental peptide).
For the variant chain 1 EELDYTAYAPLTCYFT [chain 1 D3L], the enrichment is -3.31 log2 (difference from the parental peptide).
Regarding chain 1 EEWDYTAYAPLTCYFT [chain 1 D3W], the enrichment was -2.32 log2 (difference from the parental peptide).
Take chain 1 EEEDYTAYAPLTCYFT [chain 1 D3E]: the enrichment was 1.01 log2 (difference from the parental peptide).
As for chain 1 EEGDYTAYAPLTCYFT [chain 1 D3G], the enrichment is -2.44 log2 (difference from the parental peptide).
chain 1 EEADYTAYAPLTCYFT [chain 1 D3A]: the enrichment was -2.51 log2 (difference from the parental peptide).
Under chain 1 EENDYTAYAPLTCYFT [chain 1 D3N] stands -2.11 log2 (difference from the parental peptide); under chain 1 EEDDYAAYAPLTCYFT [chain 1 T6A], 1.9 log2 (difference from the parental peptide); under chain 1 EEDDYFAYAPLTCYFT [chain 1 T6F], -4.46 log2 (difference from the parental peptide).
Regarding chain 1 EEDDYIAYAPLTCYFT [chain 1 T6I], the enrichment is -5.92 log2 (difference from the parental peptide).
To chain 1 EEDDYDAYAPLTCYFT [chain 1 T6D] belongs 3.6 log2 (difference from the parental peptide); to chain 1 EEDDYMAYAPLTCYFT [chain 1 T6M], -1.2 log2 (difference from the parental peptide); to chain 1 EEDDYPAYAPLTCYFT [chain 1 T6P], -5.36 log2 (difference from the parental peptide).
chain 1 EEDDYKAYAPLTCYFT [chain 1 T6K]: the enrichment is -1.03 log2 (difference from the parental peptide).
As to chain 1 EEDDYYAYAPLTCYFT [chain 1 T6Y], the enrichment is -1.54 log2 (difference from the parental peptide).
For the variant chain 1 EEDDYHAYAPLTCYFT [chain 1 T6H], the enrichment was -0.386 log2 (difference from the parental peptide).
With chain 1 EEDDYTAYAPATCYFT [chain 1 L11A], the enrichment is 0.289 log2 (difference from the parental peptide).
For chain 1 EEDDYTAYAPRTCYFT [chain 1 L11R], the enrichment was 1.19 log2 (difference from the parental peptide).
As for chain 1 EEDDYTAYAPWTCYFT [chain 1 L11W], the enrichment is -0.0529 log2 (difference from the parental peptide).
Consider chain 1 EEDDYTAYAPMTCYFT [chain 1 L11M], for which the enrichment was 2.23 log2 (difference from the parental peptide).
Consider chain 1 EEDDYTAYAPDTCYFT [chain 1 L11D], for which the enrichment is -7.07 log2 (difference from the parental peptide).
As to chain 1 EEDDYTAYAPCTCYFT [chain 1 L11C], the enrichment was 0.222 log2 (difference from the parental peptide).
Regarding chain 1 EEDDYTAVAPLTCYFT [chain 1 Y8V], the enrichment was -2.68 log2 (difference from the parental peptide).
To chain 1 EEDDYTAHAPLTCYFT [chain 1 Y8H] belongs -0.426 log2 (difference from the parental peptide); to chain 1 EEDDYTADAPLTCYFT [chain 1 Y8D], -2.3 log2 (difference from the parental peptide); to chain 1 EEDDWTAYAPLTCYFT [chain 1 Y5W], 1.96 log2 (difference from the parental peptide).
Turning to chain 1 EEDDLTAYAPLTCYFT [chain 1 Y5L], the enrichment is -1.57 log2 (difference from the parental peptide).
On to chain 1 EEDDDTAYAPLTCYFT [chain 1 Y5D], for which the enrichment is -5.03 log2 (difference from the parental peptide).
chain 1 EEDDITAYAPLTCYFT [chain 1 Y5I]: the enrichment was -5.08 log2 (difference from the parental peptide).
Under chain 1 EEDDYTAYAPLTCYGT [chain 1 F15G] stands -2.79 log2 (difference from the parental peptide).
As to chain 1 EEDDYTAYAPLTCYVT [chain 1 F15V], the enrichment was 1.4 log2 (difference from the parental peptide).
Take chain 1 EEDDYTAYAPLTCYPT [chain 1 F15P]: the enrichment is 1.32 log2 (difference from the parental peptide).
Consider chain 1 EEDDYTAYAPLTCYWT [chain 1 F15W], for which the enrichment was -1.58 log2 (difference from the parental peptide).
To chain 1 EEDDYTAYAPLTCYKT [chain 1 F15K] belongs 0.923 log2 (difference from the parental peptide); to chain 1 EEDDYTAYAPLTCYAT [chain 1 F15A], 1.49 log2 (difference from the parental peptide); to chain 1 EEDDYTAYAPLTCYMT [chain 1 F15M], 1.08 log2 (difference from the parental peptide).
To chain 1 EEDDYTAYAPLTCYDT [chain 1 F15D] belongs -2.26 log2 (difference from the parental peptide).
On to chain 1 EEDDYTAYAPLTCYCT [chain 1 F15C], for which the enrichment is -4.83 log2 (difference from the parental peptide).
Under chain 1 ENDDYTAYAPLTCYFT [chain 1 E2N] stands -2.2 log2 (difference from the parental peptide); under chain 1 EWDDYTAYAPLTCYFT [chain 1 E2W], -1.18 log2 (difference from the parental peptide); under chain 1 EPDDYTAYAPLTCYFT [chain 1 E2P], -3.03 log2 (difference from the parental peptide).
To chain 1 EVDDYTAYAPLTCYFT [chain 1 E2V] belongs -1.26 log2 (difference from the parental peptide); to chain 1 EMDDYTAYAPLTCYFT [chain 1 E2M], -2.17 log2 (difference from the parental peptide); to chain 1 EHDDYTAYAPLTCYFT [chain 1 E2H], -2.04 log2 (difference from the parental peptide).
Regarding chain 1 EQDDYTAYAPLTCYFT [chain 1 E2Q], the enrichment was -1.88 log2 (difference from the parental peptide).
Regarding chain 1 EEDDYTAYAPLTWYFT [chain 1 C13W], the enrichment is -6.63 log2 (difference from the parental peptide).
chain 1 EEDDYTAYAPLTDYFT [chain 1 C13D]: the enrichment was -8.73 log2 (difference from the parental peptide).
chain 1 EEDDYTAYAPLTVYFT [chain 1 C13V]: the enrichment was -2.03 log2 (difference from the parental peptide).
As for chain 1 EEDDYTAYAPLTSYFT [chain 1 C13S], the enrichment is -4.84 log2 (difference from the parental peptide).
Regarding chain 1 EEDDYTAYAPLTQYFT [chain 1 C13Q], the enrichment is -7.94 log2 (difference from the parental peptide).
With chain 1 EEDDYTAYAPLTFYFT [chain 1 C13F], the enrichment was -8.2 log2 (difference from the parental peptide).
On to chain 1 WEDDYTAYAPLTCYFT [chain 1 E1W], for which the enrichment was -3.15 log2 (difference from the parental peptide).
To chain 1 DEDDYTAYAPLTCYFT [chain 1 E1D] belongs 1.99 log2 (difference from the parental peptide); to chain 1 GEDDYTAYAPLTCYFT [chain 1 E1G], -0.0396 log2 (difference from the parental peptide); to chain 1 KEDDYTAYAPLTCYFT [chain 1 E1K], -2.64 log2 (difference from the parental peptide).
With chain 1 TEDDYTAYAPLTCYFT [chain 1 E1T], the enrichment was -0.507 log2 (difference from the parental peptide).
On to chain 1 NEDDYTAYAPLTCYFT [chain 1 E1N], for which the enrichment is -0.413 log2 (difference from the parental peptide).
Under chain 1 FEDDYTAYAPLTCYFT [chain 1 E1F] stands -2.68 log2 (difference from the parental peptide); under chain 1 HEDDYTAYAPLTCYFT [chain 1 E1H], -1.57 log2 (difference from the parental peptide).
Consider chain 1 LEDDYTAYAPLTCYFT [chain 1 E1L], for which the enrichment was -1.55 log2 (difference from the parental peptide).
As to chain 1 MEDDYTAYAPLTCYFT [chain 1 E1M], the enrichment is -0.205 log2 (difference from the parental peptide).
To chain 1 EEDDYTAYAPLACYFT [chain 1 T12A] belongs 0.00832 log2 (difference from the parental peptide); to chain 1 EEDDYTAYAPLGCYFT [chain 1 T12G], -4.11 log2 (difference from the parental peptide).
As to chain 1 EEDDYTAYAPLLCYFT [chain 1 T12L], the enrichment was 3.18 log2 (difference from the parental peptide).
Regarding chain 1 EEDDYTAYAPLFCYFT [chain 1 T12F], the enrichment was 2.42 log2 (difference from the parental peptide).
To chain 1 EEDDYTAYAPLPCYFT [chain 1 T12P] belongs 0.2 log2 (difference from the parental peptide).
chain 1 EEDDYTAYAPLRCYFT [chain 1 T12R]: the enrichment was -1.17 log2 (difference from the parental peptide).
As for chain 1 EEDDYTAYAPLSCYFT [chain 1 T12S], the enrichment is 0.347 log2 (difference from the parental peptide).
Take chain 1 EEDDYTAYAPLCCYFT [chain 1 T12C]: the enrichment was -4.88 log2 (difference from the parental peptide).
Turning to chain 1 EEDDYTAYAPLMCYFT [chain 1 T12M], the enrichment is 2.93 log2 (difference from the parental peptide).
For the variant chain 1 EEDDYTAYAPLKCYFT [chain 1 T12K], the enrichment is -2.25 log2 (difference from the parental peptide).
As to chain 1 EEDDYTAYAPLQCYFT [chain 1 T12Q], the enrichment was 1 log2 (difference from the parental peptide).
To chain 1 EEDDYTAYAPLTCCFT [chain 1 Y14C] belongs -4.56 log2 (difference from the parental peptide).
Regarding chain 1 EEDDYTAYAPLTCVFT [chain 1 Y14V], the enrichment is -1.84 log2 (difference from the parental peptide).
Under chain 1 EEDDYTAYAPLTCTFT [chain 1 Y14T] stands -1.65 log2 (difference from the parental peptide); under chain 1 EEDDYTAYAPLTCIFT [chain 1 Y14I], -1.56 log2 (difference from the parental peptide).
To chain 1 EEDDYTAYAVLTCYFT [chain 1 P10V] belongs -9.95 log2 (difference from the parental peptide); to chain 1 EEDDYTAYAFLTCYFT [chain 1 P10F], -7.39 log2 (difference from the parental peptide).
To chain 1 EEDDYTAYASLTCYFT [chain 1 P10S] belongs -7.76 log2 (difference from the parental peptide).
chain 1 EEDDYTAYACLTCYFT [chain 1 P10C]: the enrichment was -7.71 log2 (difference from the parental peptide).
Take chain 1 EEDDYTAYAALTCYFT [chain 1 P10A]: the enrichment was -7.28 log2 (difference from the parental peptide).
On to chain 1 EEDDYTAYALLTCYFT [chain 1 P10L], for which the enrichment is -9.07 log2 (difference from the parental peptide).
With chain 1 EEDDYTAYAWLTCYFT [chain 1 P10W], the enrichment is -7.42 log2 (difference from the parental peptide).
Regarding chain 1 EEDFYTAYAPLTCYFT [chain 1 D4F], the enrichment is -3.98 log2 (difference from the parental peptide).
Take chain 1 EEDRYTAYAPLTCYFT [chain 1 D4R]: the enrichment was -5.66 log2 (difference from the parental peptide).
Under chain 1 EEDIYTAYAPLTCYFT [chain 1 D4I] stands -3.77 log2 (difference from the parental peptide).
For the variant chain 1 EEDTYTAYAPLTCYFT [chain 1 D4T], the enrichment was -4.12 log2 (difference from the parental peptide).
In the case of chain 1 EEDQYTAYAPLTCYFT [chain 1 D4Q], the enrichment is -3.05 log2 (difference from the parental peptide).
With chain 1 EEDEYTAYAPLTCYFT [chain 1 D4E], the enrichment is 0.269 log2 (difference from the parental peptide).
Take chain 1 EEDHYTAYAPLTCYFT [chain 1 D4H]: the enrichment is -5.75 log2 (difference from the parental peptide).
Consider chain 1 EEDMYTAYAPLTCYFT [chain 1 D4M], for which the enrichment is -3.8 log2 (difference from the parental peptide).
Regarding chain 1 EEDWYTAYAPLTCYFT [chain 1 D4W], the enrichment was -2.51 log2 (difference from the parental peptide).
